This data set relates to maize C4 PEPC. The data set can be described thus: Kinetic and regulatory properties of PEPC variants (expressed in E. coli). Conditions: for PEP, no activators kcat/S0.5 / PEP, no activators kcat/S0.5 % wt / PEP, with activators kcat/S0.5 / kcat/S0.5 Fold incr. / PEP, with activators kcat/S0.5 % wt: PEP substrate; for PEP, no activators kcat/S0.5 % wt / PEP, with activators kcat/S0.5 % wt / Glc-6-P A0.5 % wt / Glycine A0.5 % wt / HCO3 kcat/S0.5 % wt / Malate Ki % wt / Ki for malate, in words / Vmax, in words / activation by glucose-6-phosphate, in words / activation by glycine, in words: relative to wild type; for kcat/S0.5 Fold incr.: with activators vs no activators; for HCO3 S0.5 / HCO3 kcat/S0.5 / HCO3 kcat/S0.5 % wt: bicarbonate substrate; for Ki / Malate Ki % wt: inhibitor malate. In kind it is biochemical. The source says:
Libraries of modified PEPC polynucleotides were generated using recursive sequence recombination methods (Stemmer, Proc. Natl. Acad. Sci USA 91:10747-10751; Ness, et. al., Nature Biotechnology 20:1251-1255), also known as gene shuffling methods. These libraries incorporated diversity from related PEPC enzymes and also incorporated other designed and random changes. The starting polynucleotide sequence in which the diversity was incorporated was the maize C4 PEPC as shown in SEQ ID NO: 25. Each PEPC variant was expressed in E. coli as a thioredoxin fusion using the pET 32 expression vector (Novagen) with the E. coli expression strain Rosetta gami 2 BL21 DE3 pLYS S. Cultures expressing the variants were grown in 96-well culture blocks, lysed, and then PEPC activity and PEPC protein abundance were determined. The variants with high specific activity were subjected to further rounds of shuffling, for a total of 3 rounds. Examples of nucleotide and amino acid sequences of PEPC variants obtained with this method are SEQ ID NO: 4 to 24.
Detailed kinetic studies of PEPC variants were done in accordance with methods known in the art. See, for example, Tovar-Mendez et al. (2000) Plant Physiol. 123: 149-160; Tover-Mendez et al. (1998) Biochem. J. 332: 633-642.
PEPC variants had several improved properties in comparison with wild type PEPC, including greater affinity (lower S0.5 values) with respect to the bicarbonate substrate, greater Kcat/S0.5 values with the bicarbonate or PEP substrates, greater activation (lower A0.5 values) with […] or glycine as activators and greater Ki values with malate as inhibitor.

[1] abbreviates: activator Glc-6-P, read-out: Glc-6-P A0.5.
The mark [2] stands for this setting: activator glycine, read-out: Glycine A0.5.

Substitutions are numbered along the chain they refer to. Like-named read-outs stand apart in the source and are kept apart here.

B1: 3F30-F12: maize C4 PEPC variant, 7 amino acid substitutions, SEQ ID NO: 11 (protein)
chain: MASTKAPGPGEKHHSIDAQLRQLVPGKVSEDDKLIEYDALLVDRFLNILQDLHGPSLREFVQECYEVSADYEGKGDTTKLGELGAKLTGLAPADAILVASSILHMLNLANLAEEAQIAHRRRNSKLKKGGFADEGSATTESDIEETLKRLVSEVGKSPEEVFEALKNQTVDLVFTAHPTQSARRSLLQKNAGIRNCLTQLNAKDITDGDKQELDEALQREIQAAFRTDEIRRAQPTPQDEMRYGMSYIHETVWKGVPKFLRRVDTALKNIGINERLPYNVSLIRFSSWMGGDRDGNPRVTPEVTRDVCLLARMMAANLYIDQIEELMFELSMWRCNDELRVRAEELHSSSGSKVTKYYIEFWKQIPPNEPYRVILGHVRDKLYNTRERARHLLASGVSEISAESSFTSIEEFLEPLELCYKSLCDCGDKAIADGSLLDLLRQVFTFGLSLVKLDIRQESERHTDVIDAITTHLGIGSYREWSEDKRQEWLLSELRGKRPLLPPDLPQTDEIADVIGAFHVLAELPPDSFGPYIISMATAPSDVLAVELLQRECGIKQPLPVVPLFERLADLQSAPASVERLFSVDWYMDRIKGKQQVMVGYSDSGKDAGRLSAAWQLYKAQEEMAQVAKRYGVKLTLFHGRGGTVGRGGGPTHLAILSQPPDTINGSIRVTVQGEVIEFCFGEEHLCFQTLQRFTAATLEHGMHPPVSPKPEWRKLMDEMAVVATEEYRSVVVKEPRFVEYFRSATPETEYGRMNIGSRPAKRRPGGGITTLRAIPWIFSWTQTRFHLPVWLGVGAAFKFAIDKDVRNFQVLKEMYNEWPFFRVTLDLLEMIFAKGDPGIAGLYDELLVAEELKPFGKQLRDKYVETQQLLLQIAGHKDILEGDPFLKQGLVLRNPYITTLNVFQAYTLKRIRDPNFKVTPQPPLSKEFADENKPAGLVKLNPASEYPPGLEDTLILTMKGIAAGMQNTG
modifications: shuffled variant
Turning to B1, the “PEP, no activators kcat/S0.5” value amounted to 89800 M⁻¹ s⁻¹; the “PEP, no activators kcat/S0.5 % wt” value was 263 % wt; the “PEP, with activators kcat/S0.5” value was determined as 4.496e+06 M⁻¹ s⁻¹; the “kcat/S0.5 Fold incr.” value worked out at 50.1 Fold incr. In addition, the “PEP, with activators kcat/S0.5 % wt” value is 184 % wt; the “HCO3 S0.5” value amounted to 0.0248 mM; the “HCO3 kcat/S0.5” value stood at 3.481e+06 M⁻¹ s⁻¹; the “HCO3 kcat/S0.5 % wt” value was 164 % wt. In addition, the Ki was 3.3 mM; the “Malate Ki % wt” value came out at 825 % wt; the “Ki for malate, in words” value was “increased Ki”; the “Vmax, in words” value was “better Vmax”. In addition, the “activation by glucose-6-phosphate, in words” value is recorded as “increased activation” and the “activation by glycine, in words” value is reported as “increased activation”. Further, under “activator Glc-6-P”, the “Glc-6-P Vmax Fold incr” value turned out to be 12.6 Fold incr and the “Glc-6-P A0.5 % wt” value was found to be 75 % wt. The EC50 under setting [1] is 5.11 mM. Under “activator glycine”, the “Glycine Vmax Fold incr” value was 11.3 Fold incr and the “Glycine A0.5 % wt” value was found to be 19 % wt. In addition, under setting [2], the EC50 worked out at 0.7 mM.

B2: 3C9-C9: maize C4 PEPC variant, 8 amino acid substitutions, SEQ ID NO: 22 (protein)
chain: B1 chain with A115V, H119R, G208D, D321N, S404A, R495K, I832V
modifications: shuffled variant
In the case of B2, the “PEP, no activators kcat/S0.5” value was found to be 79600 M⁻¹ s⁻¹; the “PEP, no activators kcat/S0.5 % wt” value was 234 % wt; the “PEP, with activators kcat/S0.5” value amounted to 3.831e+06 M⁻¹ s⁻¹; the “kcat/S0.5 Fold incr.” value is 48.1 Fold incr. Also, the “PEP, with activators kcat/S0.5 % wt” value is 157 % wt; the “HCO3 S0.5” value was determined as 0.021 mM; the “HCO3 kcat/S0.5” value was 3.606e+06 M⁻¹ s⁻¹; the “HCO3 kcat/S0.5 % wt” value worked out at 170 % wt. The Ki came out at 2 mM and the “Malate Ki % wt” value is on record as 500 % wt. For the setting “activator Glc-6-P”, the “Glc-6-P Vmax Fold incr” value is 11.4 Fold incr and the “Glc-6-P A0.5 % wt” value was found to be 57 % wt. For the same molecule, the EC50 under setting [1] amounted to 3.85 mM. For the same molecule, for the setting “activator glycine”, the “Glycine Vmax Fold incr” value was 11.5 Fold incr and the “Glycine A0.5 % wt” value was found to be 21 % wt. Under setting [2], the EC50 was determined as 0.76 mM.

B3: 3C2-H4: maize C4 PEPC variant, 6 amino acid substitutions, SEQ ID NO: 12 (protein)
chain: B1 chain with A115V, H119R, G208D, S404A, R495K, I555V, K556R, R807K, I832V
modifications: shuffled variant
Turning to B3, the “PEP, no activators kcat/S0.5” value was determined as 64100 M⁻¹ s⁻¹; the “PEP, no activators kcat/S0.5 % wt” value is given as 188 % wt; the “PEP, with activators kcat/S0.5” value is 3.919e+06 M⁻¹ s⁻¹; the “kcat/S0.5 Fold incr.” value is listed as 61.2 Fold incr. Further, the “PEP, with activators kcat/S0.5 % wt” value stood at 160 % wt; the “HCO3 S0.5” value worked out at 0.026 mM; the “HCO3 kcat/S0.5” value stood at 3.581e+06 M⁻¹ s⁻¹; the “HCO3 kcat/S0.5 % wt” value amounted to 169 % wt. For the same molecule, the Ki came to 1 mM; the “Malate Ki % wt” value is given as 250 % wt; the “Ki for malate, in words” value is “increased Ki”; the “Vmax, in words” value is recorded as “better Vmax”. Also, the “activation by glucose-6-phosphate, in words” value is listed as “increased activation” and the “activation by glycine, in words” value is on record as “increased activation”. Moreover, for the setting “activator Glc-6-P”, the “Glc-6-P Vmax Fold incr” value is 7.6 Fold incr and the “Glc-6-P A0.5 % wt” value is on record as 44 % wt. In addition, under setting [1], the EC50 was 3.02 mM. In addition, under “activator glycine”, the “Glycine Vmax Fold incr” value is given as 10.3 Fold incr and the “Glycine A0.5 % wt” value stood at 16 % wt. For the same molecule, the EC50 under setting [2] came out at 0.56 mM.

In general, Ki refers to the dissociation constant of the complex between target and ligand, obtained from inhibition or displacement.

The values are drawn from US20140298544A1, “Engineered PEP carboxylase variants for improved plant productivity” (PIONEER HI BRED INTERNATIONAL INC, priority 2011, published 2014).
